Results reported in patent publication US8470556B2, “Nucleic acids that encode antigen binding proteins that bind PAR-2” (Amgen Inc., priority 2007, dated 2013).
Changes are numbered by the printed parent chain. Each block holds one molecule with its values, some of them ahead of it.

Columns and labels:
Sprague Dawley rats = test: Carrageenan paw edema in Sprague Dawley rat (plethysmography); format: in vivo; conditions: antibodies IP 1.5 mg/rat, indomethacin 5 mg/kg
Method: (§1) This example describes the effects of PAR-2 antibodies on paw edema in an acute AIA model substantially as described previously. Briefly, 6-8 week old Sprague Dawley or Lewis rats (Charles River Laboratories, Wilmington, Mass.) were injected subcutaneously (SC) in the plantar region of the hind paw with 1% lambda carrageenan in one hind paw and control (saline) in the other. Blocking PAR-2 monoclonal antibody (1A1) or control (positive or negative control; see footnotes to Table 4) was administered intraperitoneally (IP) eighteen hours prior to adjuvant injection at 1.5 mg/rat (approximately 8-10 mg/kg), swelling was then measured by plethysomgraphy at selected time points. Data were expressed as volume of water in milliliters (mL) displaced per paw versus baseline measurements for that paw.

Lewis rats [1] = test: Acute adjuvant-induced arthritis (C/K) model, knee joint thickness; format: in vivo; conditions: Lewis rat, group mean ± SEM
Method: This example describes acute and chronic models of arthritis. In both models, animals are anesthetized, for example by Ketamine/Xylazine mixture (mouse mix or rat mix, respectively) or isoflurane for all intraarticular (IA), periarticular (PA) injections or intradermal (ID) injections.
Joint injections, IA or PA, are targeted at either knees or hind limb paws. PA injections are equally divided across four sites surrounding the joint of interest. Paw injections are administered ID into the plantar area of the hind paw. To serve as an internal control, one knee or hind-limb paw is injected with vehicle alone or sterile PBS. Preparation of the injection area includes shaving the joint area after animals are anesthetized, and scrubbing with an iodine solution followed by an alcohol disinfectant. All articular injections are given with a 30-gauge needle or equivalent, and when needed by a gastight (i.e., Hamilton) syringe, for small injection volumes (i.e. 10 microL).
For induction of acute AIA (aAIA), animals are injected on day zero (D0) with 1-4% lambda-carrageenan and 1-4% kaolin (C/K) by IA injection in saline. Concentrations of both compounds are dependent on intended disease severity. Total injection volumes for the inducing agent are between 10-20 microL for mice and 60-80 microL for rat. Both concentration and injection volume are consistent with published methodologies (J Clin Invest. 2003; 111(1):35-41, and J Pharmacol Exp Ther. 2006; 316(3):1017-24). Alternatively, specific PAR-2 peptide agonists, or other activators of inflammation (such as trypsin, or human beta-tryptase [J Clin Invest. 2003; 111(1):35-41, J Pharmacol Exp Ther. 2006; 316(3):1017-24, J Pharmacol Sci. 2005 97(1):38-42, and Br J Pharmacol. 1999 127(5):1083-90]) or the equivalent, may be used. Concentrations used are selected for intended disease severity, and total injection volumes are appropriate to the animal being injected.
For both acute and chronic AIA studies, caliper measurements of joint diameter are taken of all joints of interest prior to any injection. Tracking of disease may include caliper measurements of joint diameter as well as flexible tape measurements of joint circumference, and visual scoring. Alternative methods (i.e., use of a plethysmometer) may also be used. Severity of cAIA is scored by one or both of the criteria shown below:
In this manner, 6-8 week old Lewis rats were injected with C/K plus treatment (or control) in the left knee, and negative control in each right knee, as for the acute model. Joint thickness was measured at set time points after treatment, using an average of three caliper readings. The change in thickness of the left knee as compared to the right knee was expressed as percent change, and is shown in Table 3 below.

PAR-2 = biological target: T1, PAR-2 (Homo sapiens, UniProt P55085); test: FLIPR assay for Ca2+ mobilization; format: cell-based
T1 sequence (P55085 26-397): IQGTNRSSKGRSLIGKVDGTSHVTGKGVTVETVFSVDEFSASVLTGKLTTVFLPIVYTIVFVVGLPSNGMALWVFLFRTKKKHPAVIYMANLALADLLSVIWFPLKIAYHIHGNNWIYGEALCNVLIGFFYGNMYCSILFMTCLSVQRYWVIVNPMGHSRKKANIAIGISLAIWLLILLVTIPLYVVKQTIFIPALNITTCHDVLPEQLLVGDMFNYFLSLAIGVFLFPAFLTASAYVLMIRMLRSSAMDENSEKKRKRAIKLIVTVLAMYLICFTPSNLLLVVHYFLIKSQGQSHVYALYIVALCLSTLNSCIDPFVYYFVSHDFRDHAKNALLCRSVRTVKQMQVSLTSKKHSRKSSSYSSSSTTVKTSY
Text: Hybridoma clones thus generated are screened for reactivity with PAR-2. Initial screening of hybridoma supernatants may utilize a peptide ELISA, a whole cell ELISA and/or a cell-based assay suitable for high-throughput screening (fluorometric microvolume assay technology or FMAT, substantially as described by Fiscella, et al., Nature Biotechnology 21:302-307; 2003). Hybridomas that are positive in this screening method may be further cultured to provide larger amounts of antibody, which can then be purified as described below and screened by additional cell-based assay(s) (for example, a flash plate assay using cells co-expressing apoaequorin, a Ca2+-sensitive photoprotein, substantially as described by Le Poul et al., J. Biomol. Screen. 7(1):57-65; 2002, and PAR-2), or a fluorometric imaging plate reader (FLIPR) assay, which is used to determine changes in intracellular Ca2+ levels, substantially as described in S. Pitchford, Genetic Engineering News vol. 18, Number 15 (1998) and/or Sullivan et al., Methods in Molecular Biology vol. […]
(§2) Several PAR-2 antibodies were tested in different assay formats; Table 2 summarizes the results. IC50 values were determined in a FLIPR assay for Ca2+ mobilization described previously; binding to the upstream region of the cleavage site versus the downstream region of the cleavage site was determined using the Western blot assay described previously.

[2] = biological target: T2, N-terminal PAR-2/Fc (full length and truncated) (Homo sapiens, UniProt P55085); test: Western blot, binding to uncleaved versus clipped N-terminal PAR-2/Fc; conditions: for Binding to Cleavage Site Down stream: downstream binder binds both full length and truncated PAR-2-Fc; for Binding to Cleavage Site Up stream: upstream binder binds only full-length PAR-2/Fc
T2 construct: made in house; host or cells: CHO cells (10% FCS for uncleaved; serum-free for clipped)
Text: N-terminal PAR-2/Fc polypeptide (SEQ ID NO:6) is expressed in suitable mammalian cells such as CHO cells. Expression supernatant from CHO expression cells cultured in serum-free media contain a CHO cell trypsin-like serine protease that cleaves PAR-2/Fc at the activation Arg-Ser bond, generating the “clipped” version of the PAR-2/Fc polypeptide. CHO expression cells cultured in 10% fetal calf serum (which contains normal levels of plasma proteinase inhibitors at concentrations far in excess of the concentration of the CHO cell trypsin-like serine protease) express uncleaved N-terminal PAR-2/Fc in culture supernatants. Both clipped and uncleaved proteins are purified using methods that are suitable for isolation and purification of proteins comprising an Fc regions (for example, using a MabSelect™ resin systems, from GE Healthcare, Piscataway, N.J.)). The resultant purified Fc-constructs are analyzed by amino terminal sequence analysis (Edman degradation), size exclusion chromatrography, absorbance spectral scan, and mass spectroscopy, as needed.
To analyze binding to uncleaved versus cleaved PAR-2, various amounts of purified uncleaved and clipped N-terminal PAR2-Fc are subjected to SDS-PAGE using 8-16% polyacrylamide gradient gels (Novex gels, Invitrogen Life Technologies) in a Tris-Glycine buffer system. Gel lanes containing See Blue standards (Novex, Invitrogen Life Technologies) for molecular weight identification are also included. Following electrophoresis, proteins are transferred from gels onto nitrocellulose membranes using a Novex XCell II Blot Module (Invitrogen Life Technologies). Membranes are blocked with 1:1, Odyssey blocking buffer, OBB, (LI-COR Biosciences):TBS (Tris Buffer Saline) overnight at 4 C with shaking. Antibodies to be analyzed are diluted in 1:1 OBB:TBS at a desired final concentration for 1 hr at room temperature. Membranes are washed extensively with 0.1% Tween 20 in TBS (3-4 changes of 100 ml over ˜1 hr). Membranes are then exposed to the appropriate secondary antibody-Alexa680 (Molecular Probes, Invitrogen Life Technologies) conjugate (goat anti-rabbit IgG, or goat anti-mouse IgG) diluted 1:5000 in 1:1 (OBB:TBS) for 1 hr at room temperature. Membranes are washed as described above, and if desired, analyzed using a LI-COR Odyssey Infrared Imaging System (LI-COR Biosciences).
as §2

Lewis rats [3] = test: Carrageenan paw edema in Lewis rat (plethysmography); format: in vivo; conditions: IP 18 h prior to carrageenan, 1.5 mg/rat
Method: as §1

rats = test: Paw edema study, further experiments (IP versus SC, dose dependence); format: in vivo, rat
[4] = Pharmacokinetic analysis in the paw edema study; format: in vivo, rat; conditions: SC administered

T2 sequence (P55085 with tags, fused parts or gaps limits assumed): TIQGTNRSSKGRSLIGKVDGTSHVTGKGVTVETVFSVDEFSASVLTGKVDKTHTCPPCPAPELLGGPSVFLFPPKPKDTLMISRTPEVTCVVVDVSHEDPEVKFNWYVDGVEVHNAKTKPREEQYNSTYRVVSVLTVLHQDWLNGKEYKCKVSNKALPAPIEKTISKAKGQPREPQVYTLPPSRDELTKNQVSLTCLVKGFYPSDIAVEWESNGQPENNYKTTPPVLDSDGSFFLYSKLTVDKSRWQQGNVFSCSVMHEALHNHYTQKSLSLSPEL

Molecule: COc1ccc2c(c1)c(CC(=O)O)c(C)n2C(=O)c1ccc(Cl)cc1 [Indomethacin, reference compound]
Paw Edema, volume of water displaced per paw versus baseline (Sprague Dawley rats; 0 Hr): 0.00 ± 0.00 mL
Paw Edema, volume of water displaced per paw versus baseline (Sprague Dawley rats; 2 Hr): 0.26 ± 0.22 mL
Paw Edema, volume of water displaced per paw versus baseline (Sprague Dawley rats; 4 Hr): 0.28 ± 0.08 mL
Paw Edema, volume of water displaced per paw versus baseline (Sprague Dawley rats; 6 Hr): 0.49 ± 0.16 mL

Molecule: SLIGRL [reference compound]
change in thickness of the left knee as compared to the right knee, percent change (Lewis rats [1]; 0 Hr): 0.00 ± 0.00%

IC50 (PAR-2): > 1000 nM
Binding to Cleavage Site Down stream [2]: xx
B1: 2C6: binding non-blocking anti-PAR2 mAb; heavy SEQ ID NO: 23, light SEQ ID NO: 25 (antibody, listed as Homo sapiens, V domains shown)
VH: QVQLVQSGAEVKKPGASVKVSCKASGYTFTGYFFHWVRQAPGQGLEWVGWINPNSGATHFAQKFQGRVTMTRDTSISTAYMELSRLRSDDTAVYYCARDGSNWNRDYGMDVWGQGTTVTVSS
VL: QSVLTQPPSASGTPGQRVTISCSGSSSNIGINHVYWYQQLPGTAPKIFIYRNNQRPSGVPDRFSGSKSGTSASLAISGLRSEDEADYYCAVWDDSLSGVVFGGGTKLTVLG
Paw Edema, volume of water displaced per paw versus baseline (Lewis rats [3]; 0 Hr): 0.00 ± 0.00 mL
Paw Edema, volume of water displaced per paw versus baseline (Lewis rats [3]; 2 Hr): 0.22 ± 0.02 mL
Paw Edema, volume of water displaced per paw versus baseline (Lewis rats [3]; 4 Hr): 0.22 ± 0.05 mL
Paw Edema, volume of water displaced per paw versus baseline (Lewis rats [3]; 6 Hr): 0.32 ± 0.06 mL
Paw Edema, volume of water displaced per paw versus baseline (Lewis rats [3]; 8 Hr): 0.51 ± 0.11 mL
Paw Edema, volume of water displaced per paw versus baseline (Sprague Dawley rats; 0 Hr): 0.00 ± 0.00 mL
Paw Edema, volume of water displaced per paw versus baseline (Sprague Dawley rats; 2 Hr): 0.57 ± 0.08 mL
Paw Edema, volume of water displaced per paw versus baseline (Sprague Dawley rats; 4 Hr): 1.06 ± 0.16 mL
Paw Edema, volume of water displaced per paw versus baseline (Sprague Dawley rats; 6 Hr): 1.13 ± 0.08 mL

IC50 (PAR-2): > 1000 nM
Binding to Cleavage Site Down stream [2]: xx
B2: 9B12: anti-PAR-2 monoclonal antibody; heavy SEQ ID NO: 27, light SEQ ID NO: 29 (antibody, listed as Homo sapiens, V domains shown)
VH: QVQLVESGGGVVQPGRSLRLSCAASGFTFSSYGMHWVRQAPGKGLEWVAVIWYDGSNKYYADSVKGRFTISRDNSKNTLYLQMNSLRAEDTAVYYCARDLGAAAGTGFDYWGQGTLVTVSS
VL: QSVLTQPPSVSAAPGQKVTISCSGSSSNIGNNYVSWYQQLPGTAPKLLIYDNNKRPSGIPDRFSGSKSGTSATLGITGLQTGDEADYYCGTWDSSLSAGVVFGGGTKLTVL

Binding to Cleavage Site Up stream [2]: xxx
B3: 1A1: anti-PAR-2 monoclonal antibody, blocking; heavy SEQ ID NO: 9, light SEQ ID NO: 11 (antibody, listed as Homo sapiens, V domains shown)
VH: EVQLVQSGAEVKKPGESLKISCKGSGYNFISHWIGWVRQMPGKGLEWMGMIYPGDSDTRYSPSFQGQVTISADKSINTAYLQWRSLKASDTAMYFCARHGGITGTTFYYDFGMDVWGQGTTVTVSS
VL: SYELTQPPSVSVSPGQTARITCSGDALPKQYASWYQQKPGQAPLLVIYRDSERPSGLPERFSGSSSGTTVTLTISGVQAEDEADYYCQSADSGGSYVFGTGTKVTVL
change in thickness of the left knee as compared to the right knee, percent change (Lewis rats [1]; 0 Hr): 0.00 ± 0.00%
change in thickness of the left knee as compared to the right knee, percent change (Lewis rats [1]; 2 Hr): 1.10 ± 1.13%
change in thickness of the left knee as compared to the right knee, percent change (Lewis rats [1]; 72 Hr): 3.48 ± 0.66%
Paw Edema, volume of water displaced per paw versus baseline (Lewis rats [3]; 0 Hr): 0.00 ± 0.00 mL
Paw Edema, volume of water displaced per paw versus baseline (Lewis rats [3]; 2 Hr): 0.15 ± 0.06 mL
Paw Edema, volume of water displaced per paw versus baseline (Sprague Dawley rats; 0 Hr): 0.00 ± 0.00 mL
effect on paw swelling (rats; administered IP): significantly decreased paw swelling
inhibition of swelling, dose dependence (rats; administered IP): dose-dependent manner
effect on paw swelling (rats; administered SC): not when administered SC
bioavailability [4]: suboptimal

Binding to Cleavage Site Up stream [2]: xxx
B4: 1C7: anti-PAR-2 monoclonal antibody; heavy SEQ ID NO: 17, light SEQ ID NO: 19 (antibody, listed as Homo sapiens, V domains shown)
VH: B3 VH with N28S, I30T, H32Y, M50I, N77R, R84S, F95Y, G100K, F111Y
VL: B3 VL with D25E, L44V, R49K, L57I, G93N, S95A
